Target: secretory phospholipase A2 (sPLA2) from Crotalus durissus terrificus (Crotalus durissus terrificus) (UniProt P62022)
Test: MALDI-TOF mass spectrometry

With “secretory phospholipase A2 (sPLA2) from Crotalus durissus terrificus (from UniProt P62022 17-138) (enzyme)” the stoichiometry N was 2.

— publication PMC4167235
